{"source": "the nanobody polyreactivity screen of Harvey et al. (2022)"}
{"assay": "yeast display, Sf9 membrane polyspecificity reagent, FACS + sequencing; frameworks hold sequencing errors", "outline": "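Sorting gates, low and high (top ~1%), were placed on anti-HA fluorescence to track expression and on streptavidin fluorescence to track reagent binding. A clone's polyreactivity label is taken from the gate it came out of. The reagent was 10% biotinylated, detergent-solubilized Sf9 membrane, applied for 1 hour at 4 °C to galactose-induced yeast display cells.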"}
{"sequence": "QVQLVESGGGLVHAGGSLRLSCAASGSTFYGYTMGWYRQAPGKERELVAVITSGGSTYYADSVKGRFTISRDNAKNTVYLQMNSLKPEDTAVYYCAKRYGYPAYGRPWRIGRTYDYWGQGTQVTVSS", "polyreactivity (PSR sort gate)": "low polyreactivity"}
{"sequence": "QVQLVESGGGLVHAGGSLRLSCAASGSTLGYNVMGWYRQAPGKERELVAAISGDGSTNYADSVKGRFTISRDNAKNTVYLQMNSLKREDTEVYYCNAPFWGYRTSFSYPVVQRFDYWGQGTHVTVSS", "polyreactivity (PSR sort gate)": "low polyreactivity"}
{"sequence": "QVQLVESGGGLVHAGGSLRLSCAASGSTLQVYAMGWYREAPGIERELVAVITFSGGRTYYADSVKGRFTISRDTAKNTVYLQMNSLKPEDTADYYPAARYYWGQGTQVTVSS", "polyreactivity (PSR sort gate)": "high polyreactivity"}
{"sequence": "QVQLVESGGGLVHAGGSLRLSCAASGSTLSYAMGWYRQAPGKERELVAAISRSGGSTYYADSVKGRFTISRDNAKNTVYLQMNSLKPEDTAVYYCAADPYPSYANGGYYWGQGTQVTVSS", "polyreactivity (PSR sort gate)": "high polyreactivity"}
{"sequence": "QVQLVESGGGLVHAGGSLRLSCAASGSTYYGNAMGWYIQAPRKERELVAAINRGGSTYYADSVKGRFTISRDNAKNTVYLQMKSLKPEDTAVYYCAADYEYLPKTRDGYYWGQGTQVTVSS", "polyreactivity (PSR sort gate)": "low polyreactivity"}
{"sequence": "QVQLVESGGGLVHAGGSLRLSCAASGYTFSRNAMGWYRQAPGKERELVAAITGSGGSTYYADSVKGRFTISRDNAKNTVYLQMNSLKPEDTAVYYCATEVKRGYVGFDYWGQGTQVTVSS", "polyreactivity (PSR sort gate)": "low polyreactivity"}
{"sequence": "QVQLVESGGGLVHAGGSLRLSCAAYGFIFYDYVMGWYRQAPGKERELVAAITGSGGGTYYADSVKGRFTISRDNAKNTVYLQMNSLKPDATAVYYCAADFISVYGYEYYYWGQVTQVTVSS", "polyreactivity (PSR sort gate)": "high polyreactivity"}
{"sequence": "QVQLVESGGGLVHAGGSLRLSCAAYGIIFQYYTMGWYRQAPGKERELVASITYDGDSTYYADSVKGRFTISLDNAKNTVYLQMNSLKPEDTALYYCAAVANGFWTYEYWGQGTQVTVSS", "polyreactivity (PSR sort gate)": "low polyreactivity"}
{"sequence": "QVQLVESGGGLVHAGGSLRLSCAAYGRTYGTNAMGWYRQAPVKERELVAAIRRGGSRTYYADSVKGRFTISRDYAKNTVYLPMNSLKPEDTAVYYCAAKLRAYVDPFEYWGQGTQVTVSS", "polyreactivity (PSR sort gate)": "low polyreactivity"}
{"sequence": "QVQLVESGGGLVHAGGSLRLSCADSGRIFYANALGWSRQSPGRERELVAAISSGGSTYYADSVKGRFTSSRDNAKNTVYLQMNSLKPEDTAVYYCAVYTLKKVRPEYDYWGQGTQVTVSS", "polyreactivity (PSR sort gate)": "low polyreactivity"}
{"sequence": "QVQLVESGGGLVHAGGSLRLSCAPSGSTFFTNAMGWYRQAPGKERELVAAITINDGSTFYADSVKGRFTISRDNAKNTVYLQMNSLKQEDTAVYYCNADGVDLYDYWGQGTQVTVSS", "polyreactivity (PSR sort gate)": "low polyreactivity"}
{"sequence": "QVQLVESGGGLVHAGGSLRLSCASSGSTFFTNAMGWYRQAPGKERELVAAITINDGSTFYADSVKGRFTISRDNAKNTVYLQMNSLNPEDTAVYYCNADGVDLYDYWGQCTQVTVSS", "polyreactivity (PSR sort gate)": "low polyreactivity"}
{"sequence": "QVQLVESGGGLVHAGGSLRLSSAASGRTFLSYTMGWYRQAPGKERELVAVISRSGGRTYYADSVKGRFTISRDNATNTVYLQMNSLKPEDTADYYCAADTYRGYDFDYWGQGSQVTVSS", "polyreactivity (PSR sort gate)": "high polyreactivity"}
{"sequence": "QVQLVESGGGLVHAGGSLRLSSAASGSIYYYAMGWYRQAPGKERELVAAITWRGGRTYYADSVKGRFTISRDNAKNNVYLQMNILKPEDTAVYYCNDVAPGKYNHWGQGTQVNVSS", "polyreactivity (PSR sort gate)": "high polyreactivity"}
{"sequence": "QVQLVESGGGLVHAGGSLRLTCAASGLTFAYYAMGWYRQAPGKERELVAAISWNGGRTYNADSVKGRFTISRDNAKNTVYLQMNSLKPEDTAVYYCAAQVTSSFYWGQGTQVTVSS", "polyreactivity (PSR sort gate)": "high polyreactivity"}
{"sequence": "QVQLVESGGGLVHAGGSLRLTCAASGRTYRNGMGWYRQAPGKERELVAAISVSGTRTYYADSVKGRFTISRDNAKNTVYLQMNSLKPEDTAVYYCNADLSPTADDELDYRLVRDDYWGQGTQVTVSS", "polyreactivity (PSR sort gate)": "low polyreactivity"}
{"sequence": "QVQLVESGGGLVHAGGSLSLSCAASGSIFGQYAMGWYRQAPGKERELVAAISYSTDARTYYADSVKGRFTISRDNAKNTVYLQMNSLKPEDTAVYYFNADSYFGYWGQGTQVTVSS", "polyreactivity (PSR sort gate)": "low polyreactivity"}
{"sequence": "QVQLVESGGGLVHAGGSLSLSCAASGYTFPLYAMGRYRQAPGKERELVADNNIGGASTYYADSVKGRFTISRDNAKNTVYLQMNSLKPEDTAVYYCAKEDYDGYFPTFDYDYWGQGTQVTVSS", "polyreactivity (PSR sort gate)": "low polyreactivity"}
{"sequence": "QVQLVESGGGLVHAGRSLRLSCAPSGSTFSIYDMGWSRQAPGKERELVAAISGSGSRTYYADSVKGRFTISRDNAKNTVYLQMNSLKPEDTALYYCAARGRHRDGFDFNYWGQGTQVTVSS", "polyreactivity (PSR sort gate)": "high polyreactivity"}
{"sequence": "QVQLVESGGGLVHPGGRLRLSCAASGRIYKYYVMGWYRQAPGKEREFVAAISGRGGRTYYADSVKGRFTISRDNAKNTVYLQKNSLKPEDTAVYYCATERQDRGPLGYNYWGQGTQVTVSS", "polyreactivity (PSR sort gate)": "high polyreactivity"}
{"sequence": "QVQLVESGGGLVHPGGSLRLSCAASGRTYAVDAMGWYRQAPGKERELVAAISRRGGSTSYADSEKGRFTISRDNAKNTVSLQMNSLKPEDTAVYYCNTDPGKFTPFDYWGQGTQVTVSS", "polyreactivity (PSR sort gate)": "high polyreactivity"}
{"sequence": "QVQLVESGGGLVKAGGILRLSCAASGFNFSSYAMGWYIPAPGKERELVAAISGSGGTTYYADSVKGRFTISRDNAKNTVYLQLNSLKPEDTAVYYCATRLGLVITKYGYDYWGQGTQVTVSS", "polyreactivity (PSR sort gate)": "high polyreactivity"}
{"sequence": "QVQLVESGGGLVKAGGSLLLSCAASGIIFRRNAMGRNIQAPGKERELVAAISSSKGRTYYADSVKGRFTISRDNAKNTVYLQMNSLKPEDTAVYYCTADYDASARGWGQIAYVYWGQGTQVTVSS", "polyreactivity (PSR sort gate)": "low polyreactivity"}
{"sequence": "QVQLVESGGGLVKAGGSLRISCAASGFILGQYAMGWYRQAPGKERELVAAISRSSSTTYADSVKGRFTISRDKAKNTVYLQMNSLNPEDTAVYYCAAYYWYVTYFRREIAYEYWGQGTQVTVSS", "polyreactivity (PSR sort gate)": "low polyreactivity"}
{"sequence": "QVQLVESGGGLVKAGGSLRITCAASGRIFGYYPMGWYRPATGKESELVAAITRRGGITYYADSVKGRFTISRDNAKNTVYLPMNCLKPADTAVYYRAADRYWGYDYWGQGTQVTGSS", "polyreactivity (PSR sort gate)": "high polyreactivity"}
{"sequence": "QVQLVESGGGLVKAGGSLRLSCAASGFSFFGYAMGWYRQAPGKERELVAAIDNGGSTNYADSVKGRFTISRDNAKNTVYLQMNSLKPEDTAVYYCNTDVDYAILDYWGQGTQVTVSS", "polyreactivity (PSR sort gate)": "low polyreactivity"}
{"sequence": "QVQLVESGGGLVKAGGSLRLSCAASGFTFWRNTMGWYRQAPGKERELVAAIDRSGSSTYYADSVKGRFTISRDNATNNVYFQMNSLKPEDTAVYYCAADHTYFTAYGDYWGQGTQVTVSS", "polyreactivity (PSR sort gate)": "low polyreactivity"}
{"sequence": "QVQLVESGGGLVKAGGSLRLSCAASGFTLSRYTKGWYRQAPGKEWELVAAISWSGGSTYYADSVKGRFTISRDNAKNTVYLQMNSLKPEDSAVYYCAARYHYYGLYTSGDYYWGQGTQVTVSS", "polyreactivity (PSR sort gate)": "high polyreactivity"}
{"sequence": "QVQLVESGGGLVKAGGSLRLSCAASGIIMSYYVMGWYIQAPGKERELVAAISLRGGTTYYADSEKGRFTISRDNAKNTVYLQKNSLKPEDTAVYYCAAQRPGFGYEYDYWGQGTQVTVSS", "polyreactivity (PSR sort gate)": "high polyreactivity"}
{"sequence": "QVQLVESGGGLVKAGGSLRLSCAASGITCTKNAMGWYRQAPGKERELVAAISTSGGSTYYADSVKGRFTISRDTAKNTVYLQMTSLKPEDTAVYYCAARAVIRGGRYFYWGQGTLVTVSS", "polyreactivity (PSR sort gate)": "high polyreactivity"}
{"sequence": "QVQLVESGGGLVKAGGSLRLSCAASGITFRKYAMGWYRQAPGKERELVAAITAGGGRTFYADSVKGRFTISRDNAKNTVYLQMNSLKPEDTAVYYCNADLGIGYDYWGQGTQVTVSS", "polyreactivity (PSR sort gate)": "high polyreactivity"}
{"sequence": "QVQLVESGGGLVKAGGSLRLSCAASGLILYRYVMGWYRQAPGKERELVAAISSSGGRTYYADSVKGRFTISRDIAKNTVYLQMNSMKPEDTAVYYCAKRRSDARRGYDYWGQGTQVTVSS", "polyreactivity (PSR sort gate)": "high polyreactivity"}
{"sequence": "QVQLVESGGGLVKAGGSLRLSCAASGRIDSTYAMGWSRQAPGKERDLVAAINKIGGSTYYADSVKGRFTISRDNEKNTVYLQMNSLKPEDTAVYYCAADAPYYPVRRYYYWGQGTQVTVSA", "polyreactivity (PSR sort gate)": "low polyreactivity"}
{"sequence": "QVQLVESGGGLVKAGGSLRLSCAASGRIFNWYVMGWSRQAPGKERELVAAISWGSGNTYYADSVKGRFTISRDNAKNTVYLQMNSLKPEDTAVYYCNKVRSYRSWRGKYDYWGQGTQVTVSS", "polyreactivity (PSR sort gate)": "high polyreactivity"}
{"sequence": "QVQLVESGGGLVKAGGSLRLSCAASGRIFYNFSMGWSRQAHGKERELVAAISGSGGSTYYADSVKGRFTISRDNAKNTVYLQMNSLKPEDTAVYYCSTSGPQYYSRNFDYWGQGTQVTVSS", "polyreactivity (PSR sort gate)": "low polyreactivity"}
{"sequence": "QVQLVESGGGLVKAGGSLRLSCAASGRNFNYYAMGWYTQAPGKERELVAAIRSGGSTYYADSVKGRFTISRDNAKYTVYFQMNSLKPEDTAVYYCAKSMSSDAYDSWGQGTKVTVSS", "polyreactivity (PSR sort gate)": "low polyreactivity"}
{"sequence": "QVQLVESGGGLVKAGGSLRLSCAASGSIFNRYAMGWYRPAPGKEREFGARISKRGGGTYYADSVKGRFTISRDNAKNPVYLQMNRLKPEDTAVYYCNAGVPSAMDYCGQGTQVTVSS", "polyreactivity (PSR sort gate)": "high polyreactivity"}
{"sequence": "QVQLVESGGGLVKAGGSLRLSCAASGSTFGLYVMGWYRQAPGKERELVAAINRIGSRTYYADSVKGRFTISRDNAKNTVYLQMNSLKPEDTAVYYCAADYDYTSPGDDYWGQGTQVTVSS", "polyreactivity (PSR sort gate)": "high polyreactivity"}
{"sequence": "QVQLVESGGGLVKAGGSLRLSCAASGSTFQWYAMGWYRQAPGKERELVAAINKSGGTTYYADSVKGRFTISRDNAKNSVYLQMNSLKPEDTAVYYCATDNPVVYQPGNMDYWGQGTQVTVSS", "polyreactivity (PSR sort gate)": "low polyreactivity"}
{"sequence": "QVQLVESGGGLVKAGGSLRLSCAASGSTFRPYAMGWYRPAPGKERELVAAITSRGGSTYYADSVKGRFTISRDNAKNTVSLQMNSLKPEDTAVYYCAASYEVVASSYRYYYWGQGTQVTVSS", "polyreactivity (PSR sort gate)": "high polyreactivity"}
{"sequence": "QVQLVESGGGLVKAGGSLRLSCAASGSTSPFNAMGWYRQAPGKERELVAAITSGGSTHYADSVKGRFTISRDNAKNTVYLPMNRLKPEDSAVYYCAAEPVAYYGSSYGYWGQGTQVNVSS", "polyreactivity (PSR sort gate)": "low polyreactivity"}
